# Source: the nanobody polyreactivity screen of Harvey et al. (2022)
# Assay: yeast display, Sf9 membrane polyspecificity reagent, FACS + sequencing; frameworks hold sequencing errors
# How it was run: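 A nanobody's polyreactivity label depends on the gate it was sorted from. Yeast display cells were stained with 10% biotinylated, detergent-solubilized Sf9 membrane reagent for 1 hour at 4 °C, enriched on streptavidin microbeads and sorted by FACS. The low and high (top ~1%) gates were set on anti-HA fluorescence for expression and streptavidin fluorescence for reagent binding.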
row,Sequence,polyreactivity (PSR sort gate)
1,QVQLVESGGGLVQAGGSLRLSCAASGRTFPPYAMGWYRQAPGKERELVAAIRWSGGDTYYADSVKGRFTISRDNAKNTVYLQMNSLKPEDTAVYYCNAVYYSYSYGYNYWGQGTQVTVSS,high polyreactivity
2,QVQHVESGGGLVQAGGSLRLSCSASGRTFSSYVMGWYRQAPGKERELVATITSGGITYYADSVKGRFTISRDNAKNTVYLQMNSLKPEDTAVYYCARAPPGDRFVRYDYWGQGTQVTVSS,high polyreactivity
3,QVQLVESGGGLVQAGGSLRLSCADSGITFGLYAMGWYRQAPGKERELVAAISSSGGRTYYADSVKGRFTISRDIAKKTVYLQMYSLKPEDTAVYVCATDTDGFAANRPAGDGDWGQGTQVTVSS,high polyreactivity
4,QVQLVESGGGLVQAGGSLRLSCAASGFLFGYSAMGWYRQAPGKERELVAAISYACRSTYYADSVKGRFTISRDNAKNTVYLQMNSLKPEDTAVYYCAKYGQSNYDWGQGTQVTVSS,high polyreactivity
5,QVQLVESGGGLVQAGGSLRLSCAASGGIFDENAMGWYRQAPGKARELVAGITQRGASTNYADSVKGRFTISRDNAKNTVYLQMNSLKPEDTAVYYCDADVGTVISYEYWGQGTQVTVSS,low polyreactivity
6,QVQLVESGGGLVQAGGSLRLSCAASGRILTLYAMGWYRQAPGKERELVAGINRGDVSTYYADSVKGRFTISRDNAKNSVYLQMNSLKPEDTAVYYCYADPPPDYYPDKDNYWGQGSQVTVSS,low polyreactivity
7,QVQLVESGGGLVQAGGSLRLSCAASGSTFYDNTMGWYRQPPGKERELVAVITTDGDRTYYADSVKGRFTISRDNAKNTVYLQMKSLKPEDTAVYYCNARRAYWVVYPGDDYWGQGTQVSVSS,low polyreactivity
8,QVQLVESGGGLVQAGGSLRLSCAASGNTFWFYGMGWYRQAPGKERELVAAITSGGSTDYADSVKGRFTISRDNAKNTVYLLLNSLKPEDTAVYYCAAEPVAYYGSSYGYWGQGTQVTVSS,low polyreactivity
9,QVQLVESGGGLVQAGGSLRLSCAASGRIFVGYTMGWYRQAPGKERELVAAITSGGSTYYADSVKGRFTISRDNAKNTVYLQMNSLNPEDTADYYCNAAYQFDSYHLGGNRYEYWGQGTQETVSS,low polyreactivity
10,QVQLVESGGGLVQAGGSLRLSCAASGFIFVVYAMGWYRQAPGQERELVAAITYSGGSTYYADSVKGRFTISRDNAKNTVYLQMNSLKPEDTAVYYCAAPEHDREFDYWGQGTQVTVSS,low polyreactivity
11,QVQLVESGGGLVQAGGSLRLSCAASGFTFWIYAMGWYRQAPGKERELVAAISASGGSTRYADSVKVRFTISRDNAKNTVYLQMNSLKPEDTAVYYCAAYHGLRRGFDYWGPGTQVTVSS,high polyreactivity
12,QVQLVESGGGLVQAGGSLRLSCAASGRIFLRNDMGWYRQAPGKERELVAGISSDGSTYYADSVKGRFTISRDNAKNTVYLQMNSLKPEDTAVYYCAAERWGNPTDYQFWRPYDYWGQGTQVTVSS,low polyreactivity
13,QVQLVESGGGLVQAGGILRLSCAASGSTFYENAMGWYRQAPGKERELVAAITWSGGRTYYADSVKGRFTISRDNAKNTVYLQMNSLKPEDTAVYYCNARARSRKFYYWGQVTQVTVSS,high polyreactivity
14,QVQLVESGGGLVQAGGSLRLSCAACGSIFYGNAMGWDRQAPGKVRELVAAITQGATSTYYADSVKGRFTISRDNAKNTVDLQMNSLKPEDTAVYYCAAVLAWRYTYYYWGQGTQVTVSS,high polyreactivity
15,QVQLVESGGGLVQAGGSLRLSCAASGSTFRANAMGWYRQAPGTERELVAVISSGGRTYYADSVKGRFTMSRDNAKTTVYLQMNSLKPEDTAVYYCAKDDYSVWYYYDYDYWGQGTQVTVSS,high polyreactivity
16,QVQLVESGGGLVQAGGSLRLSCAAYGSTFPGYAMGWYRQAPGKERELVAAISASGGSTYYADSVKGRFTISRDNAKNTVYLQMISLIPEDTAVYFCAKVLSRGACADDYWGQGTQVTVSS,low polyreactivity
17,QFQLVESGGGLDQAGGSLRLSCAASGRTFCNNAMGSYRQAAGKETELFAAISVLGGSTYYADSVKGRFTISRDNAKYTVFLQMNSLKPEDTAVYYCATRSRGWIAPPWQGSDGLYYWGQGTQVTVSS,low polyreactivity
18,QVQLVESGGGLVQAGGSLRLSCAASGRISRSNTMGWYRQGPGKERELVAAISRGGGSTYYADSVKGRFTISRDNAKNTVYLQMNSLKPEDTAVDYCAKAFRGHYWRQGTQVTVSS,high polyreactivity
19,QVQLVASGGGLVQAGGSLRLSCAASGSTFDIYAMGWYRQAPGKERELVAAISVSDVYTYYADSVKGRFTISRDNAKNTVYLQMNSLKPEDTAVYYCAAETPTHDEWGQGTQVTVSS,high polyreactivity
20,QVQLVESGGGLVQAGGSLRLSCAASGSTFWYNAMGWYRQAPGKERELVAAITTRGDSTYYADSVKGRFTISRDNAKNTVYLQMNSLKPEDTAVYYCAADWAWYSYDWYYWYDYWGQGTQVTVSS,high polyreactivity
21,QVQLVESGGGLVQAGGRLRLSCADSGSTFLYNAMGWYRQAPGKERELVAAITSDGSTSYADSVKGRFTISRDNAKNTVYLQMNSLKPEDTALYYSAAYGFQHLSSLPFSRHNYWGQGTQVTVSS,low polyreactivity
22,QVQHVESGGGLVQAGGSLRLICAASGFTFHLYAMGWYRQAPGKERELVASITYSGGSTYYADSVKGRFTISRDKAKNTVYLHMNSLKAEDTAFYYCNRYSSSYSYDYWGQATQVTVSS,high polyreactivity

row,Sequence,polyreactivity (PSR sort gate)
1,QVQLVESRGGLVQAGGSLRLSCAASRFYTMGWYRQAPGKERELVAAISWSGGDTYYADSVKGRFTISRDNAKNTVYLQMNSLKPDDTAVYYCAKKTIGSYVHEPYYYWGQGTQVTVSS,low polyreactivity
2,QVQLQESGGGLVQAGGSLRCAASGNISTRSEMGWYRQAPGKEREFVATINSGGITNYADSVKGRFTISRDNAKNTVYLRMNCLKPEDTAVYYRAVYGYFSDPYDYWGQGTQVTVSS,low polyreactivity
3,QVQLVESGGGLVQAGGSLRLSCAASGRIFQDNAMGWYRQTPGKERELVAAISRRGGSTYYADSVKGRFTISRDNAKYTVYLQMNSMKPEDTAVYYCAAKWSVEEDYWGQGTQVTVSS,high polyreactivity
4,QVQLVESGGGLVQAGGSLRLSCAGSGSTFRSNAMGWYRQAPGKERELVAAISRSGGRTYYADSVKGRFTISRDNAKNTVYLQMNSLKPEDTAVYYCNTVLKRQRKNEYWGQGTQVTVSS,high polyreactivity
5,QVQLVESGGGLVQAGGSLSLSCAASGLTFKWNAMGWYRQAPGKEREFVAANTKRAGSTYYADSVKGRFTISRDNAKNTVYIQMNSLKPEDTAVYYCAADDGYFYARYDYWGQGTQVTVSS,low polyreactivity
6,QVQLVESGGGLVQAGGSLRLSCAASGRIFIYNAKGWYRQAPGKERELVAAITSDGTTNYADSVKGRFTISRDNAKNTVYLQMNSLKPEDTAVYYCAVDPFGSLVTYDYWGQGTQVTVSS,low polyreactivity
7,QVQLVESGGGLVQAGGSLRLSCAASGIIFPWYDMGWYRQAPGKERELVAGITDGGDTTYADSVKWRFTISRDNAKNTVYLQMNSLKPEDTAVYYCAADIGYGYWHFDYWGQGTQVTVSS,low polyreactivity
8,QVQLVESGGGLVQAGGSLRLSCAASGRIFTRNAMGWYRQAPGKERELVAAIRWSGDSTYYADSVKGRFTISRDNAKNTVYLQMNSLKPEDTAVYYCAAYRQRSHRVGTKGHRVGYWGQVTQVTVSS,high polyreactivity
9,QVQLVESGGGIVQAGGSLRLRCAASGSIFVPYAMGWYRQAPGKERELVAAISSRGGRTYYADSVKGRFTISRDNAKNTVYLQMNSLKPEDTAVYYCNKTAGSHIPRLEYWGQGTQVTVSS,low polyreactivity
10,QVHLVESGGGLVQAGGSLRLSCAASGSNFYPYAMGWYRQEPGKERELVAAIRWRGDRTYYADSVKGRFTISRDNAKKTVYLQMNSLKPEDTGVYYCAADLSGWSTHGSWGQATQVTVSS,high polyreactivity
11,QVQHVESGGGLVQAGGSLRLSCAASGRTFPGNAMGWYRQAPGKERELVAAISSSGGSTHYADSVKGRFTFSRDNAKNTVYLQMNSRKPEDSAVYYCNARSKGYSYRYYYWGQGTQVTVSS,high polyreactivity
12,QVQLVESGGGLVQAGGSLRLSCAASGITLYNYAMGWYRQAPGKERELVAAISLSGGRTYYADSVKGRFTISRDNAKNTVYLQMNSLKPEDTAVYYCAAETDFVWSAPQLAYKVYYWGQGTQVTVSS,low polyreactivity
13,QVQLVESGGGLVQAGGSLRLSCAASGRTSRSYTMGWYRQAPGKERELVAAITRGGRTYYADSVKGRFTISRDNAMNTVYLQMNSLKPEDTAVYYCATDRVQSYGYWGQGTQVTVSS,low polyreactivity
14,QVQLVESGGGLVQAGGSLRLSCAASGLTFSYYAMGWYRQAPGKERELVAAIDYSGGTTYADSVKGRFTISRDNAKNTVYLQMNSLKPEDTAVYYCAREWYQYSPYHRFDYWGQGTQVTVSS,high polyreactivity
15,QVQLVESGGGLVQAGGSLRLSCAASGRIFVRNAMGWYRQAPRKERELVADITNGGSTNYADSVKGRFTISRDNGMNTVYLQMNSLKPEDTAVYYCAADTLGVYDGDYWGQGTQVTVSS,low polyreactivity
16,QVQLVESGGGLVQAGGSLRLICAASGFTLTRNAMGWYRQAPGKESELVAAISWSGGTTYYADSVKGRFTISRDNAKNTVYLQMNSLKPEDTAFYYCNTASWRDQYYYWGQVTQVTVSS,high polyreactivity
17,QVQLVESGGGLVQAGGSLRLSCAASGRTFEANAMGWYRQAPGKERELVASISRSGGNTYYADSVKGRFTISRDNAKNTGYLQMNSLKPEDTAVYYCAARFRVGQRRFNYWGQGTQVTVSS,high polyreactivity
18,QVQLVESGGGLVQAGGSLRLSCAASGSIFYFYAMGWYRQAPGKERELVAASRFTGGTTYYADSVKGRFTISRDNAKNTVYLQMNSLKPEDTAVYYCAKQTSYWSRGYDYWGQGTQVTVSS,low polyreactivity
19,QVQLVESGGGLVQAGGSLRLSCAASGRTLVRYAMGWYRQAPGKEREFVAGISYSGGSTYYADSVKGRFTISRDNAKNTVYLQMNSLKPEDTAVYYCAATTRGARKSGGNYWGQGTQVTVSS,high polyreactivity
20,QVQLVESGGGLVQAGGSLRFSCDASGRSFYINAMGWYRQAPGKERELVAAITWSGGRTYYADSVKGRFTISRDNAKNTVYLQMNSLKPEDTAVYYCNTRSYSFYVPYRYDYWGQGTHVTVSS,high polyreactivity
21,QVQLVESVGGLVQAGGSLRLSCAASGSIYRSYTMGWYRQAPRKEREFVAAITKRGGSTYYADSVKGRFTISRDNAKNTVYLQMISLKPEDTAVYYCAAVAGHYYYFRELGYWGQGTQVTVSS,high polyreactivity
